# According to the RNAGym collection of RNA variant scans (doi:10.1073/pnas.2313332121):
# B1: TPR t1 (parent)
# chain: GACCAAUCUGCCCUCAGAGCUCGAGAACAUCUUCGGAUGCAGAGGAGGCAGGCUUCGGUGGCGCGAUAGCGCCAACGUCCUCAACCUCCAAUGCAUCCCACCACAUGAUGAUGCCUGAAGAGCCUUGGUUUUUUG
# Variants of: B1
# Test: polymerase ribozyme fitness, log enrichment relative to wild type (log ratio); higher = more active; in vitro selection for triplet polymerase activity
# Summary of the method: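 Each subunit of a heterodimeric triplet polymerase ribozyme was represented by a PCR-built, transcribed mutant library that underwent triplicate single-round in vitro selection with frozen incubation at −7 °C. Extended constructs were recovered by gel excision, streptavidin-bead capture and RT-PCR, and Illumina sequencing of input and output libraries kept genotypes with ≥10 input reads and ≥1 read per output. Fitness is the logarithm of genotype enrichment relative to wild-type enrichment, from inverse-variance-weighted replicate averages, with a logarithm base of 2.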
row,Variant,polymerase ribozyme fitness (log ratio)
1,GACCAAGCUGCCCUCAGAGCUCGAGAACAUCUUCGGAUGCAGAGGAGUCAGGCUUCGGUGGCGCGAUAGAGCCAACGUCCUCAACGUCCAAUGCAUCCCACCACAUGAUGAUGCCUGAAGAGCCUUGGUUUUUUG [U7G G48U C70A C86G],-1.54
2,GAUCAAUCUGGACUCAGAGCUCGAGAACAUCUUCGGAUGCAGAGGAGGCUGGCUUGGGUGGCGCGAUAGCGCCAACGUCCUCUACCUCCAAUCCAUCCCACCACAUGAUGAUUCCUGAAGAGCCUUGGUUUUUUG [C3U C11G C12A A50U C56G A83U G93C G113U],-5.9
3,GACCAAUCUGCCCUCAGGGCUCGAGAACAUCUUCGGAUGCAGAGGAGGCAGGCUUCGGUGGCGCGAUAGCGCCAACGUCCUCAACCUCCAAUGCAUCCCACCACAUGAUGAUGCCUGAAGAGCCUUGGUGUUUUG [A18G U130G],-4.25
4,GACCAAUCUGCCAUCAGAGCACGAGAACAUCUUCGGAUGCAGAGGAGGCAGGCCUGGGUGGCGCGAUAGCGCCAACGUCCUCAACAUCCAAUGCAUCCCACCACAGGAUGAUGCCUGAAGAGCUUUGGUUUUUUG [C13A U21A U54C C56G C86A U106G C124U],-2.59
5,GACCAAUGUGCCCUCAGAGUUCGAGAACAUCUUCGGAUGCAUAGGAGGCAGGCUUCGGUGGCGCGAUAGCGCCAACGUCCUCUACCUCCAAUGCAUCCCACCACAUGAUGAUGCCCGAAGAGACUUGGUUUUUUG [C8G C20U G42U A83U U116C C123A],-3.74
6,GAACAAUCUGCCCUCAGAGCUCGAGAACUUCUUCGGAUGCAGAGGAGGCAGGCUUCGGUGGCGCGAUAGCGCCAACGUCCUCAACCUCCAAUGCAUCCCACCACAUGAUGAUGCCUGAAGAGCCUUGGUUUUUUG [C3A A29U],-3.36
7,GACUAAUCUGCCCUCAGAGCUCGAGAACAUCUUCGGAUGCAGAGGAGGCAGGCUUCGGUGGCGCGAUAGCGCCAACGUCCUCAACCUCCAAUGCAUACCACCACAUGAUGAUGCCUGAAGAGCCUUGGUUUUUUG [C4U C97A],-5.21
8,GACCAAUCUGCCCUCAGAGUUCGAGAACAUCUUCGGAUGCAGAGGAGGCAGGCUUCGGUGGCGCGAUAGCACCAACGUCCUCAACCUCCAAUGCAUCCCACCACAUGAUGAUGCCUGAAGAGCCUUGGUUUUUUG [C20U G71A],-1.94
9,GACCAAUCUGCCCUCAGAGCUCGAGAACAUCUUCGGAUGCAGAGGAGGCAGGCUUCGGUGGCGCGAUAGCCCCAACGUCCUCAACCUCCAAUGCAUCCCACCACAUGAUGAUGACUGAAGAGCCUUGGUUUUUUG [G71C C114A],-2.75
10,GACGAAUCAGCCCUCAGAGCUCGAGAACAUCUUCGGAUGCAGAGGAGGCAGGCUUCGGUGGGGCGAUAGCGCCAACGUCCUCAACCUCCAAAGCGUCCCACCACAUGAUGACACCUGAAGAGCCUUGGUUUUUUG [C4G U9A C62G U92A A95G U112C G113A],-5.53
11,GACCAAUUUGCCCUCAGAGCUCGAGAACAUCUUCGGAUUCAGAGGAGGGAGGCUUCGGUGGCACGAUAGCGCCAACGACCUCAACCUCCAAUGCAUCCCACCACAUGAUGAUGCCUGAAGAGCCUUGAUUUUUUG [C8U G39U C49G G63A U78A G128A],-3.94
12,GACCAAUCUGCCCUCAGAGCUCGAGAACAUCUUCGGCGGCAGAGGAGGCAGGCUUCGGUGGCGCGAUAGCGCCAACGUCCUCAACCUCCAAUGCAUCCCACCACAUGAUGAUGCCUGAAGAGCCUUGGUUUUUUG [A37C U38G],-1.27
13,GAACAAUCUGCCCUCAGAGCUCGAGAACAUCUUCGGAUGCAGAGGAGGCAGGCUUCGGUGGCGCGAUAGCGACAACGUCCUCAACCUCCAAUGCAUCCCACCACAUGAUUAUGCCUGAAGAGCCUUGGUUUUUUG [C3A C72A G110U],-3.62
14,GACCAAUCUGCCCUCAGAGCUCGAGAACAUCUUCGGAUGCAGAGGAGGCGGGCUUCGGUGGCGCGAUAGCGCCAACGUCCUCAACCUACAAUGCAUCCCACCAUAUGAUGAUUCCUGAAGAGCCUUGGCUUUUUG [A50G C88A C104U G113U U129C],-4.06
15,GACGAAUCUGCCCUCAGAGCUCGAGAACAUCUUCGGAUGCAGAGGAGGCAGGCUUCGGUGGCACGAUAGCGCCAACGUCCUCAACCUCCAAUGCAUCCCACCACAGGAUGAUGCCUGGAGAGGCUUGGUUUUUUG [C4G G63A U106G A118G C123G],-2.77
16,GACCAAUCUGCCCUCCGAGCUCGAGAACAUCUUCGGAUGCAGAGGAGGCAGGCUUCGGUGGCGCGAUAGCGACAACGUCCUCAACCUCCAAUGCAUCCCACCACAUGAUGAUGCCUGAAGAGCCUUGGUUUUUUG [A16C C72A],-3.3
17,GACUAAUCUGCCCUCAGAGCUCGAGAACAUCUUCGGAUGCAGAGGAGGCAGGCUUCGGUGGCGCGAUAGCGCCAACGUCCUCAACCUCCAAUGCAUCCCACCACAUGAAGAUGCCUGAAGAGCCUUGGUUUUUUG [C4U U109A],-5.02
18,GACCAAUCUGCCCUCAGAGCUCGAGAAUAUCUUCGGAUGCAGAGGACGCAGGCUUCGGUGGCGCGAUAGCGCAAACGUCCUCAACCUCCAAUGCAUUCCACCACAUGAUGAUGCCUGAAGAGCCUUGGUUUUUUG [C28U G47C C73A C97U],-3.8
19,GACCAAUCUGCCCUCAGAGCUCGAGAACAUCUUCGGAUGCAGAGGAGACAGGCUUCGGUGGCGCGAUAGCGCCAGCGUCCUCAACCUCCAAUGCAUCCCACCACAUGAUGAUGCCUGAAAAGCCUUGGUUUUUUG [G48A A75G G120A],0.0402
20,GACCAAUCUGCCCUCAAAGCUCGAGAACAUCUUCGGAUGCAGAGGAGGCAGGCUUCGGUGGCGCGAUAGCGCCAACGUCCUCAACCUCCACUCCAUCCCACCACAUGAUGAUGCCUGAACAGCCUUGGUUCUUUG [G17A A91C G93C G120C U131C],-1.37
21,GACCAAUCUGCCCUCAGAGCUCGAGAACAUCUUCGGAUGCAGAGGAGGCAGGCUUCGGUGGCGCGAUAGCGCCAACGUCCUCAACCUCCAAUGCAUCCCACCACAUGAUGAUGGCUGAAGAGCCUUAGUUUUUUG [C114G G127A],-4.97
